Measured values: publication PMC8784642

Biological target: Thermoanaerobacter italicus TagA^FL∗ (residues M1-R244, I203E/L209Q/L212K/I216E), solubility-enhanced TagA (Thermoanaerobacter italicus)
Assay: AUC

Q: Which results are given for “Thermoanaerobacter italicus TagA^FL∗ (residues M1-R244, I203E/L209Q/L212K/I216E), solubility-enhanced TagA (enzyme)”?
A: Kd: 210 µM; stoichiometry N: 2
